Laboratory results published in article PMC12016552, “Growth-coupled continuous directed evolution by MutaT7 enables efficient and automated enzyme engineering” (Applied and Environmental Microbiology, 2025).
Substitutions are numbered along the chain they refer to. Numbers in names are those of the source.

Substrate: O=S1(=O)OC(c2ccc(O)c(Cl)c2)(c2ccc(O[C@@H]3O[C@H](CO)[C@H](O)[C@H](O)[C@H]3O)c(Cl)c2)c2ccccc21
Experiment: purified protein
Type: biochemical, Pyrococcus furiosus
Details: 25 °C, PBS pH 7.4 (CPRG assay as described for screening; screening buffer contained 2.7% glucose)

B1: CelB (Pyrococcus furiosus) (protein)
chain: MKFPKNFMFGYSWSGFQFEMGLPGSEVESDWWVWVHDKENIASGLVSGDLPENGPAYWHLYKQDHDIAEKLGMDCIRGGIEWARIFPKPTFDVKVDVEKDEEGNIISVDVPESTIKELEKIANMEALEHYRKIYSDWKERGKTFILNLYHWPLPLWIHDPIAVRKLGPDRAPAGWLDEKTVVEFVKFAAFVAYHLDDLVDMWSTMNEPNVVYNQGYINLRSGFPPGYLSFEAAEKAKFNLIQAHIGAYDAIKEYSEKSVGVIYAFAWHDPLAEEYKDEVEEIRKKDYEFVTILHSKGKLDWIGVNYYSRLVYGAKDGHLVPLPGYGFMSERGGFAKSGRPASDFGWEMYPEGLENLLKYLNNAYELPMIITENGMADAADRYRPHYLVSHLKAVYNAMKEGADVRGYLHWSLTDNYEWAQGFRMRFGLVYVDFETKKRYLRPSALVFREIATQKEIPEELAHLADLKFVTRK
notes: homotetramer
Km: 29.1 ± 1.9 µM | kcat: 0.89 ± 0.04 s⁻¹

B2: CelB (Pyrococcus furiosus; E365K/G72E) (protein)
chain: B1 chain with G72E, E365K
notes: homotetramer
Km (variant AA10): 19.3 ± 2.5 µM | kcat (variant AA10): 1.16 ± 0.10 s⁻¹

B3: CelB (Pyrococcus furiosus; K436N/L412W/Y416H) (protein)
chain: B1 chain with L412W, Y416H, K436N
notes: homotetramer
Km (variant W10): 17.6 ± 3.6 µM | kcat (variant W10): 1.15 ± 0.18 s⁻¹
